Molecular target: the molecule itself
Assay: SEC

B1: LanYFP, yellow fluorescent protein from Branchiostoma lanceolatum (natural protein, UniProt B1PNC0 1-219, looked up)
chain: MSLPATHELHIFGSFNGVDFDMVGRGTGNPNDGYEELNLKSTKGALQFSPWILVPQIGYGFHQYLPFPDGMSPFQAAMKDGSGYQVHRTMQFEDGASLTSNYRYTYEGSHIKGEFQVIGTGFPADGPVMTNSLTAADWCVTKMLYPNDKTIISTFDWTYTTGSGKRYQSTVRTNYTFAKPMAANILKNQPMFVFRKTELKHSKTELNFKEWQKAFTDVM
stoichiometry N: 4

From publication PMC3811051 (Nature methods, 2013)
